T1: CsNAC17 (Camellia sinensis, UniProt A0A4S4ETT7 1-357)
T1 chain: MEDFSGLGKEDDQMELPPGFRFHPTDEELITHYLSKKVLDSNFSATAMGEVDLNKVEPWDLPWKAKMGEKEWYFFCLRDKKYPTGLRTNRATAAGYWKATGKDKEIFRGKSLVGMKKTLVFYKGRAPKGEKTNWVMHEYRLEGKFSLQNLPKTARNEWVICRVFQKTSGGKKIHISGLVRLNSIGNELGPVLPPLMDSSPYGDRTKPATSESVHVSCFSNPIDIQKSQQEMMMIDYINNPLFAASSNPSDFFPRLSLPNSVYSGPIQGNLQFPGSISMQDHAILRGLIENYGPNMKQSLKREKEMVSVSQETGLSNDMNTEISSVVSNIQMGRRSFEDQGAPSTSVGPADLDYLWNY

B1: ProCsRPM1-CACG probe (dsDNA)
DNA 1: CTACGTAGCACGGTCCTATT
DNA 2: AATAGGACCGTGCTACGTAG
B2: ProCsRPM1-CATGTG probe (dsDNA)
DNA 1: TTTTAGACATGTGTTTCCCA
DNA 2: TGGGAAACACATGTCTAAAA

Target: T1, CsNAC17
Experiment: EMSA; LightShift Chemiluminescent EMSA Kit; buffer, salt, pH and temperature not stated
Details: protein: recombinant; tags: GST (pGEX-6p-1); chain copies: 0; label: biotin (hot probe); blunt

| Binder | binding result |
| --- | --- |
| B1 | binds |
| B2 | binds |
